Publication PMC7535911
Like-named read-outs stand apart in the source and are kept apart here.

Experiments:
[1] = target: ubiquitin-7-amino-4-methyl coumarin (Ub-AMC) (UniProt P0CG47)
[2] = target: ubiquitin-7-amino-4-methyl coumarin (Ub-AMC) (UniProt P0CG47); remark: listed apart in the source

Substance | DUB activity in vitro with Ub-AMC as substrate (Kapp, percent of WT) [1] | DUB activity in vitro with Ub-AMC as substrate (Kapp, percent of WT) [2]
TYMV PRO/DUB N760A/R844A (enzyme) | 344 % of WT | –
TYMV PRO/DUB T763A (enzyme) | – | 89 % of WT
TYMV PRO/DUB E759A (enzyme) | – | 137 % of WT
TYMV PRO/DUB N760A (enzyme) | – | 135 % of WT
TYMV PRO/DUB R844A (enzyme) | 320 % of WT | –
